Common to all, as to assay: co-IP
For test [1], the target named is Plk4-EGFP A15 (Drosophila) (UniProt O97143).
Test [2] has as its target Plk4-EGFP A16 (Drosophila) (UniProt O97143).
Test [3] concerns the target Plk4-EGFP A17 (Drosophila) (UniProt O97143).
In test [4] the target is Plk4-EGFP A18 (Drosophila) (UniProt O97143).
The target in test [5] is Plk4-EGFP A19 (Drosophila) (UniProt O97143).
In test [6] the target is Plk4-EGFP A20 (Drosophila) (UniProt O97143).
Test [7] addresses Plk4-EGFP A26 (Drosophila) (UniProt O97143).

“Slimb (F-box protein of the SCF ubiquitin ligase) (natural protein)”: the further fold decrease of Slimb binding (beyond A14) in test [1], in test [2], in test [3], in test [4], in test [5] and in test [6] was 2 fold each time. Also, the fold reduction in the amount of associated Slimb in test [7] amounted to 5 fold.

The record behind these values is paper PMC3844517.
